The target in the assay is soluble human FcRn (human) (UniProt P55899). The assay can be described thus: SPR. Conditions: natural protein; remark: other sources report otherwise.
UniProt P55899, sequence (P55899 24-297, chain 1 of 2): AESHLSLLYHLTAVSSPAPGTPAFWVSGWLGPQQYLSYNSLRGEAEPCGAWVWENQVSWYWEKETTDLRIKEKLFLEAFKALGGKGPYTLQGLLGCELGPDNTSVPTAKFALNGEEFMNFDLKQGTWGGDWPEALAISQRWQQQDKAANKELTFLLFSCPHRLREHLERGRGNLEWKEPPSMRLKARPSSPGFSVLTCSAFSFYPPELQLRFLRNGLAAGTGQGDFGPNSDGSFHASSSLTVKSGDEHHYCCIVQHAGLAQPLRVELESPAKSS
UniProt P55899, sequence (partner, as listed by the source, chain 2 of 2): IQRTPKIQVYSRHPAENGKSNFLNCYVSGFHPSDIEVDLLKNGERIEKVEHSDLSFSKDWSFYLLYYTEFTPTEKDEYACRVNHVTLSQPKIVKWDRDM

As usually defined, the Kd is the equilibrium constant for the complex coming apart. Low readings indicate higher affinity, high ones lower affinity. In the case of “Recombumin-NHBn34 (from UniProt P02768 25-609)”, the dissociation constant (Kd) was determined as 13.2 µM.

The record behind these values is paper PMC5799870.
